Assay results reported in patent US20110118131A1 (published 2011).

Biological target: T1, Ep-CAM (UniProt P16422 24-265, limits assumed)
T1 construct: Amine coupled to a CM5 chip in the Biacore assays
T1 sequence (looked up): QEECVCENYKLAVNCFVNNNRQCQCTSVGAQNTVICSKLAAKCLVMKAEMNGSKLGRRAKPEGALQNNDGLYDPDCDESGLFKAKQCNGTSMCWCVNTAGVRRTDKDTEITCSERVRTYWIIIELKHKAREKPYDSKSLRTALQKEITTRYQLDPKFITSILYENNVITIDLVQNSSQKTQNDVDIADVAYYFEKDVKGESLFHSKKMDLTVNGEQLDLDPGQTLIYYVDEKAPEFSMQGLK
Test: Biacore, Fab periplasmic extract

B1: ING-1 light chain P100H (Fab, V domains shown)
VH: QIQLVQSGPELKKPGETVKISCKASGYTFTKYGMNWVKQAPGKGLKWMGWINTYTEEPTYGDDFKGRFAFSLETSASTANLQINNLKSEDTATYFCARFGSAVDYWGQGTSVTVSS
VL: DIVMTQAAFSNPVTLGTSGSISCRSSKSLLHSNGITYLYWYLQKPGQSPQLLIYQMSNLASGVPDRFSSSGSGTDFTLRISRVEAEDVGVYYCAQNLELHRTFGGGTKLEMKR
notes: Fab, periplasmic extract
- fold difference in affinity vs parental ING-1: 0.05 fold

B2: ING-1 light chain P100K (Fab, V domains shown)
VH: QIQLVQSGPELKKPGETVKISCKASGYTFTKYGMNWVKQAPGKGLKWMGWINTYTEEPTYGDDFKGRFAFSLETSASTANLQINNLKSEDTATYFCARFGSAVDYWGQGTSVTVSS
VL: DIVMTQAAFSNPVTLGTSGSISCRSSKSLLHSNGITYLYWYLQKPGQSPQLLIYQMSNLASGVPDRFSSSGSGTDFTLRISRVEAEDVGVYYCAQNLELKRTFGGGTKLEMKR
notes: Fab, periplasmic extract
- fold difference in affinity vs parental ING-1: 0.03 fold

B3: ING-1 light chain P100N (Fab, V domains shown)
VH: QIQLVQSGPELKKPGETVKISCKASGYTFTKYGMNWVKQAPGKGLKWMGWINTYTEEPTYGDDFKGRFAFSLETSASTANLQINNLKSEDTATYFCARFGSAVDYWGQGTSVTVSS
VL: DIVMTQAAFSNPVTLGTSGSISCRSSKSLLHSNGITYLYWYLQKPGQSPQLLIYQMSNLASGVPDRFSSSGSGTDFTLRISRVEAEDVGVYYCAQNLELNRTFGGGTKLEMKR
notes: Fab, periplasmic extract
- fold difference in affinity vs parental ING-1: 0.05 fold

B4: ING-1 light chain P100Q (Fab, V domains shown)
VH: QIQLVQSGPELKKPGETVKISCKASGYTFTKYGMNWVKQAPGKGLKWMGWINTYTEEPTYGDDFKGRFAFSLETSASTANLQINNLKSEDTATYFCARFGSAVDYWGQGTSVTVSS
VL: DIVMTQAAFSNPVTLGTSGSISCRSSKSLLHSNGITYLYWYLQKPGQSPQLLIYQMSNLASGVPDRFSSSGSGTDFTLRISRVEAEDVGVYYCAQNLELQRTFGGGTKLEMKR
notes: Fab, periplasmic extract
- fold difference in affinity vs parental ING-1: 0.04 fold

B5: ING-1 light chain P100R (Fab, V domains shown)
VH: QIQLVQSGPELKKPGETVKISCKASGYTFTKYGMNWVKQAPGKGLKWMGWINTYTEEPTYGDDFKGRFAFSLETSASTANLQINNLKSEDTATYFCARFGSAVDYWGQGTSVTVSS
VL: DIVMTQAAFSNPVTLGTSGSISCRSSKSLLHSNGITYLYWYLQKPGQSPQLLIYQMSNLASGVPDRFSSSGSGTDFTLRISRVEAEDVGVYYCAQNLELRRTFGGGTKLEMKR
notes: Fab, periplasmic extract
- fold difference in affinity vs parental ING-1: 0.05 fold

B6: ING-1 light chain P100S (Fab, V domains shown)
VH: QIQLVQSGPELKKPGETVKISCKASGYTFTKYGMNWVKQAPGKGLKWMGWINTYTEEPTYGDDFKGRFAFSLETSASTANLQINNLKSEDTATYFCARFGSAVDYWGQGTSVTVSS
VL: DIVMTQAAFSNPVTLGTSGSISCRSSKSLLHSNGITYLYWYLQKPGQSPQLLIYQMSNLASGVPDRFSSSGSGTDFTLRISRVEAEDVGVYYCAQNLELSRTFGGGTKLEMKR
notes: Fab, periplasmic extract
- fold difference in affinity vs parental ING-1: 0.06 fold

B7: ING-1 light chain Q55D (Fab, V domains shown)
VH: QIQLVQSGPELKKPGETVKISCKASGYTFTKYGMNWVKQAPGKGLKWMGWINTYTEEPTYGDDFKGRFAFSLETSASTANLQINNLKSEDTATYFCARFGSAVDYWGQGTSVTVSS
VL: DIVMTQAAFSNPVTLGTSGSISCRSSKSLLHSNGITYLYWYLQKPGQSPQLLIYDMSNLASGVPDRFSSSGSGTDFTLRISRVEAEDVGVYYCAQNLELPRTFGGGTKLEMKR
notes: Fab, periplasmic extract
- fold difference in affinity vs parental ING-1: 0.05 fold

B8: ING-1 light chain Q55E (Fab, V domains shown)
VH: QIQLVQSGPELKKPGETVKISCKASGYTFTKYGMNWVKQAPGKGLKWMGWINTYTEEPTYGDDFKGRFAFSLETSASTANLQINNLKSEDTATYFCARFGSAVDYWGQGTSVTVSS
VL: DIVMTQAAFSNPVTLGTSGSISCRSSKSLLHSNGITYLYWYLQKPGQSPQLLIYEMSNLASGVPDRFSSSGSGTDFTLRISRVEAEDVGVYYCAQNLELPRTFGGGTKLEMKR
notes: Fab, periplasmic extract
- fold difference in affinity vs parental ING-1: 0.05 fold

B9: ING-1 light chain R101D (Fab, V domains shown)
VH: QIQLVQSGPELKKPGETVKISCKASGYTFTKYGMNWVKQAPGKGLKWMGWINTYTEEPTYGDDFKGRFAFSLETSASTANLQINNLKSEDTATYFCARFGSAVDYWGQGTSVTVSS
VL: DIVMTQAAFSNPVTLGTSGSISCRSSKSLLHSNGITYLYWYLQKPGQSPQLLIYQMSNLASGVPDRFSSSGSGTDFTLRISRVEAEDVGVYYCAQNLELPDTFGGGTKLEMKR
notes: Fab, periplasmic extract
- binding result: no binding

B10: ING-1 light chain R101E (Fab, V domains shown)
VH: QIQLVQSGPELKKPGETVKISCKASGYTFTKYGMNWVKQAPGKGLKWMGWINTYTEEPTYGDDFKGRFAFSLETSASTANLQINNLKSEDTATYFCARFGSAVDYWGQGTSVTVSS
VL: DIVMTQAAFSNPVTLGTSGSISCRSSKSLLHSNGITYLYWYLQKPGQSPQLLIYQMSNLASGVPDRFSSSGSGTDFTLRISRVEAEDVGVYYCAQNLELPETFGGGTKLEMKR
notes: Fab, periplasmic extract
- binding result: no binding

B11: ING-1 light chain R101F (Fab, V domains shown)
VH: QIQLVQSGPELKKPGETVKISCKASGYTFTKYGMNWVKQAPGKGLKWMGWINTYTEEPTYGDDFKGRFAFSLETSASTANLQINNLKSEDTATYFCARFGSAVDYWGQGTSVTVSS
VL: DIVMTQAAFSNPVTLGTSGSISCRSSKSLLHSNGITYLYWYLQKPGQSPQLLIYQMSNLASGVPDRFSSSGSGTDFTLRISRVEAEDVGVYYCAQNLELPFTFGGGTKLEMKR
notes: Fab, periplasmic extract
- binding result: no binding

B12: ING-1 light chain R101H (Fab, V domains shown)
VH: QIQLVQSGPELKKPGETVKISCKASGYTFTKYGMNWVKQAPGKGLKWMGWINTYTEEPTYGDDFKGRFAFSLETSASTANLQINNLKSEDTATYFCARFGSAVDYWGQGTSVTVSS
VL: DIVMTQAAFSNPVTLGTSGSISCRSSKSLLHSNGITYLYWYLQKPGQSPQLLIYQMSNLASGVPDRFSSSGSGTDFTLRISRVEAEDVGVYYCAQNLELPHTFGGGTKLEMKR
notes: Fab, periplasmic extract
- binding result: no binding

B13: ING-1 light chain R101K (Fab, V domains shown)
VH: QIQLVQSGPELKKPGETVKISCKASGYTFTKYGMNWVKQAPGKGLKWMGWINTYTEEPTYGDDFKGRFAFSLETSASTANLQINNLKSEDTATYFCARFGSAVDYWGQGTSVTVSS
VL: DIVMTQAAFSNPVTLGTSGSISCRSSKSLLHSNGITYLYWYLQKPGQSPQLLIYQMSNLASGVPDRFSSSGSGTDFTLRISRVEAEDVGVYYCAQNLELPKTFGGGTKLEMKR
notes: Fab, periplasmic extract
- fold difference in affinity vs parental ING-1: 0.04 fold

B14: ING-1 light chain R101N (Fab, V domains shown)
VH: QIQLVQSGPELKKPGETVKISCKASGYTFTKYGMNWVKQAPGKGLKWMGWINTYTEEPTYGDDFKGRFAFSLETSASTANLQINNLKSEDTATYFCARFGSAVDYWGQGTSVTVSS
VL: DIVMTQAAFSNPVTLGTSGSISCRSSKSLLHSNGITYLYWYLQKPGQSPQLLIYQMSNLASGVPDRFSSSGSGTDFTLRISRVEAEDVGVYYCAQNLELPNTFGGGTKLEMKR
notes: Fab, periplasmic extract
- binding result: no binding

B15: ING-1 light chain R101Q (Fab, V domains shown)
VH: QIQLVQSGPELKKPGETVKISCKASGYTFTKYGMNWVKQAPGKGLKWMGWINTYTEEPTYGDDFKGRFAFSLETSASTANLQINNLKSEDTATYFCARFGSAVDYWGQGTSVTVSS
VL: DIVMTQAAFSNPVTLGTSGSISCRSSKSLLHSNGITYLYWYLQKPGQSPQLLIYQMSNLASGVPDRFSSSGSGTDFTLRISRVEAEDVGVYYCAQNLELPQTFGGGTKLEMKR
notes: Fab, periplasmic extract
- binding result: no binding

B16: ING-1 light chain R101S (Fab, V domains shown)
VH: QIQLVQSGPELKKPGETVKISCKASGYTFTKYGMNWVKQAPGKGLKWMGWINTYTEEPTYGDDFKGRFAFSLETSASTANLQINNLKSEDTATYFCARFGSAVDYWGQGTSVTVSS
VL: DIVMTQAAFSNPVTLGTSGSISCRSSKSLLHSNGITYLYWYLQKPGQSPQLLIYQMSNLASGVPDRFSSSGSGTDFTLRISRVEAEDVGVYYCAQNLELPSTFGGGTKLEMKR
notes: Fab, periplasmic extract
- binding result: no binding

B17: ING-1 light chain R101W (Fab, V domains shown)
VH: QIQLVQSGPELKKPGETVKISCKASGYTFTKYGMNWVKQAPGKGLKWMGWINTYTEEPTYGDDFKGRFAFSLETSASTANLQINNLKSEDTATYFCARFGSAVDYWGQGTSVTVSS
VL: DIVMTQAAFSNPVTLGTSGSISCRSSKSLLHSNGITYLYWYLQKPGQSPQLLIYQMSNLASGVPDRFSSSGSGTDFTLRISRVEAEDVGVYYCAQNLELPWTFGGGTKLEMKR
notes: Fab, periplasmic extract
- binding result: no binding

B18: ING-1 light chain R101Y (Fab, V domains shown)
VH: QIQLVQSGPELKKPGETVKISCKASGYTFTKYGMNWVKQAPGKGLKWMGWINTYTEEPTYGDDFKGRFAFSLETSASTANLQINNLKSEDTATYFCARFGSAVDYWGQGTSVTVSS
VL: DIVMTQAAFSNPVTLGTSGSISCRSSKSLLHSNGITYLYWYLQKPGQSPQLLIYQMSNLASGVPDRFSSSGSGTDFTLRISRVEAEDVGVYYCAQNLELPYTFGGGTKLEMKR
notes: Fab, periplasmic extract
- binding result: no binding

B19: ING-1 light chain S28N (Fab, V domains shown)
VH: QIQLVQSGPELKKPGETVKISCKASGYTFTKYGMNWVKQAPGKGLKWMGWINTYTEEPTYGDDFKGRFAFSLETSASTANLQINNLKSEDTATYFCARFGSAVDYWGQGTSVTVSS
VL: DIVMTQAAFSNPVTLGTSGSISCRSSKNLLHSNGITYLYWYLQKPGQSPQLLIYQMSNLASGVPDRFSSSGSGTDFTLRISRVEAEDVGVYYCAQNLELPRTFGGGTKLEMKR
notes: Fab, periplasmic extract
- binding result: no binding

B20: ING-1 light chain S32N (Fab, V domains shown)
VH: QIQLVQSGPELKKPGETVKISCKASGYTFTKYGMNWVKQAPGKGLKWMGWINTYTEEPTYGDDFKGRFAFSLETSASTANLQINNLKSEDTATYFCARFGSAVDYWGQGTSVTVSS
VL: DIVMTQAAFSNPVTLGTSGSISCRSSKSLLHNNGITYLYWYLQKPGQSPQLLIYQMSNLASGVPDRFSSSGSGTDFTLRISRVEAEDVGVYYCAQNLELPRTFGGGTKLEMKR
notes: Fab, periplasmic extract
- binding result: no binding
